Assay results: the supplement of paper PMC12764529
± gives the half width of the 95% confidence interval.

Columns and labels:
[1] = folding stability dG unfold from trypsin proteolysis; higher = more stable
In short: (§1)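 Digests were run with trypsin and chymotrypsin at 11 concentrations in threefold dilutions, plus a no-protease condition, on designed mini-proteins in a PA-tagged cDNA display construct. The mini-proteins were under 80 residues, had no cysteine, and were kept only when AlphaFold2 dimer inter-PAE was above 15. After sequencing, Bayesian fitting of the counts gave K50, from which unfolding free energy was derived against a sequence-predicted unfolded-state K50 and a shared folded-state K50, per protease or combined.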

[2] = folding stability dG unfold from chymotrypsin proteolysis; higher = more stable
In short: as §1

[3] = folding stability dG unfold (combined trypsin and chymotrypsin); higher = more stable
In short: as §1

Sequence | folding stability dG unfold [1] [kcal/mol] | folding stability dG unfold [2] [kcal/mol] | folding stability dG unfold [3] [kcal/mol]
SAGGMYILELTFTTPTSTTPRTVEVPPGNYEEAAKALREELAAEAGAADLEVTFTVYKVAPDGTLVEESAGG [r13_877_JUSTAS] | 1.16 ± 0.049 | 2.51 ± 0.097 | 2 ± 0.19
SAGKTRTINFPGFQIQVQRDPDGKKEITIMFDNPEQRKQMIEQNPFLREFIEWAEKDGLKVEIHVMPPKSAG [r14_873_TrROS] | 1.85 ± 0.071 | 2.04 ± 0.15 | 2.06 ± 0.18
SAGGATIEIKELGRDEDTWYFLVTDPGSAEAVKDFIEKFIPPDYDAKIKILSVDPETGKVTALIEIPGSAGG [r13_491_TrMRF] | 2.23 ± 0.11 | 2.69 ± 0.14 | 2.64 ± 0.15
SAGGSITKTLGTEEKGDKTITYSVTTSPEGKITFTTTTKTPSGSGTSTTTTTTTTPLAGLPLPPLGGSAGGS [r8_458_JUSTAS] | 0.473 ± 0.042 | 0.831 ± 0.18 | 0.717 ± 0.19
SAGGKKVEITIEASPEEAEELAKKLEELFPDVKVEVVEVKPEEPVRVTVRVEVKVELSPEELKKLLESAGGS [r16_180_TrROS_Hall] | 1.45 ± 0.085 | 1.37 ± 0.11 | 1.4 ± 0.14
SAHITISIEVPLPNLKGQTPEEAREVAKDKAREIAKMFNPEFGIKVKEVEVEPHPDEGWLKVDITFEPKSAG [r14_310_TrROS] | 0.998 ± 0.058 | 0.596 ± 0.05 | 0.824 ± 0.2
SSPEEDLEEIEITVTNPNDPRPSFVKVTRSPEGYEATFTLPDGKTVKIPPELGLEEIKKLPSSFTITILPSA [r9_781_JUSTAS] | 0.0376 ± 0.059 | 0.83 ± 0.087 | 0.561 ± 0.064
SAGGSAGGSAIVILLPWGFLIEIKNIRMEMKRDPGNGEPKMDMHIPIEIIPIPPPGDPAFQESAGGSAGGSA [r18_6_TrROS] | 2.12 ± 0.054 | 3.17 ± 0.039 | 2.79 ± 0.14
SAGDSIEIMVMVKTPEEAKKLADEIAQILPGNGLNIEITIMPMEELMKMFMEMTKPDPDGEYRRVRMFSAGG [r19_187_TrROS] | 1.07 ± 0.053 | 1.37 ± 0.13 | 1.3 ± 0.14
SAGGSAGGSAGGSMPIVRIEVKHPDQKHTFFIPPDMPLEDIADELASQYPNVEVKIEPVSAGGSAGGSAGGS [r4_155_TrROS] | 0.355 ± 0.091 | 1.33 ± 0.11 | 0.935 ± 0.21
SAGGSAGGSAPVFLRVEVENPNGERFELTAKLGDPIEIDPSVVDNVKVEVFDPDGNKAEFELNSAGGSAGGS [r12_380_TrMRF] | 0.284 ± 0.042 | 0.611 ± 0.057 | 0.506 ± 0.069
SAGGSAGGSAGGMVVRITTKDGRTITFPPGTSLEELRSLPADEITRVEVVEVEPVRVVEPSAGGSAGGSAGG [r7_190_TrROS_Hall] | 1.45 ± 0.028 | 1.97 ± 0.051 | 1.75 ± 0.082
SAGMDVKELAKEAMEKYPPGDKEIEFEIPVGPRPFKVKIDYEPDPENGKPRPKITIENPDNGKKTEFTFSAG [r5_236_TrROS] | -1.07 ± 0.74 | 0.61 ± 0.19 | 0.11 ± 0.17
SAGGSAGGSAGGSIVVETKKNPGPERVVTVKLPDGTPLADVPVSPDEDPEEAVKRALELGSAGGSAGGSAGG [r7_444_JUSTAS] | 0.0908 ± 0.071 | 0.305 ± 0.037 | 0.386 ± 0.17
SAGPVVVDPNGKLLPLKVKAVFVIDPELLEEKAKESDNSLEKAIRDLVKELEAELKAKGYDVEVEGIGSAGG [r19_305_TrMRF] | 1.12 ± 0.067 | 1.97 ± 0.049 | 1.68 ± 0.061
SAPILPDAVVSEKPSVSQLPGNSTLVTTTYTYPGGPTITKTTTYTVDPSTGKWTTTSSTTLTPEAAAAASAG [r14_842_JUSTAS] | 0.377 ± 0.041 | 0.977 ± 0.075 | 0.754 ± 0.066
SAGGKGKAVPFEIEFEAPGGKKVKAKITRIDLPDKPIYRVEVEVDGKKITYTATEDEAANLTFTPGGSAGGS [r8_257_TrMRF] | 1.48 ± 0.058 | 2.21 ± 0.035 | 1.92 ± 0.16
SGKDTLILELVLEVDSEEQAQAIRDIFEALGYKVEVRVFPLPDGLIVFVRVEVPVPPPPPSLEDPELLAKSA [r9_863_TrMRF] | 1.92 ± 0.092 | 2.75 ± 0.028 | 2.57 ± 0.15
SAGMELKVEIVAPKEVLLEKVKELEATIKKAFPKVKVEVEAKIEPLEGDEWKATVVIKIEPLPEDEPAESAG [r5_936_TrMRF] | 3.87 ± 0.27 | 3.59 ± 0.18 | 3.91 ± 0.78
SAGMKKPPPPTVTIKIRVNGKTITITVYPDGTVTVTFENGEKKTIKMTPEEVEKLLKELEKKGYEIELVSAG [r5_753_TrROS_Hall] | 2.51 ± 0.26 | 0.664 ± 0.33 | 1.49 ± 0.48
SAGMKPGDMRPVEIPFEIYQYDDGGPKPVAPMTIKIMVNPDEGYVMLEIENPGNGEPVIIFTLPADDISAGG [r19_413_TrROS] | 1.65 ± 0.055 | 2.42 ± 0.057 | 2.16 ± 0.1

Sequence | folding stability dG unfold [1] [kcal/mol] | folding stability dG unfold [2] [kcal/mol] | folding stability dG unfold [3] [kcal/mol]
SAMKYVELKLTITVPKEKEEEIEKLKKALEKLGAEIVSVEVEYDEETEEVTVTVTIRIENLSEEELKKASAG [r14_956_TrROS_Hall] | 1.97 ± 0.048 | 2.97 ± 0.08 | 2.69 ± 0.086
SAGGSKFEVEKLPDNTYRFKVPNENGETLEITVEKLPDGAILVTHPSNPKPVLFPASTTIEDLLKKSAGGSA [r2_338_TrMRF] | 1.29 ± 0.029 | 2.22 ± 0.029 | 1.95 ± 0.032
SAGMKTVTVKVKISEEEREKLKELGFEIVEEKEDYLVIKVKVPPELSEEELEEAKKEGMTLEEALAKLSAGG [r19_115_TrROS_Hall] | 2.05 ± 0.12 | 1.71 ± 0.077 | 1.74 ± 0.27
SAGGSAGGSMPFKIDVEVERHPEDNMYQVEITFPGNREIPIMVDDPSDPEKAKNIAKEFAKQLSAGGSAGGS [r12_1012_TrROS] | 0.13 ± 0.082 | -0.648 ± 0.7 | -0.0883 ± 0.13
SAKMTAEEIAAALAEELGLEVVEVVEVDEETGKITIRVDGKLIEITVVEEDGELKIEVRVVDEETGEELSAG [r14_270_TrROS_Hall] | 1.84 ± 0.087 | 0.852 ± 0.073 | 1.36 ± 0.18
SAGGSAGGSSPEENLETQVETELLEEFKPGDKPRKLVKTTVTYPDGTTKEEIVTIDENGNILLSAGGSAGGS [r12_755_JUSTAS] | -0.206 ± 0.049 | -0.117 ± 0.065 | -0.0945 ± 0.1
SAGGSAMPDMTAEELAAEVAKKLPPGEKVLIKIRNKNGETKTFELGEDISDLPADEVTEIEIEVLPSAGGSA [r15_50_TrROS_Hall] | 0.248 ± 0.073 | 1.05 ± 0.036 | 0.781 ± 0.054
SAGGSAGGSAGWFTIMFKADSPEKVEEIVDELAQENGLEVEIERNPGEPGYIMITIKPPPSAGGSAGGSAGG [r11_797_TrROS] | 1.47 ± 0.054 | 0.974 ± 0.21 | 1.27 ± 0.12
SAGGSAGGSAGGPEEPEKLTLRVTLTFYNPETQEPVEEVEVEITLTAEDLKEGKITITPSAGGSAGGSAGGS [r10_672_TrROS_Hall] | 1.54 ± 0.043 | 2.85 ± 0.07 | 2.32 ± 0.13
SAGSSPEEIAERLREEAERTEKLPDGSEVRVSVSVDVEVLPNGTVRLTIPRSYPETGVVTTETVTIPVASAG [r5_397_JUSTAS] | 0.0542 ± 0.11 | -0.579 ± 0.33 | -0.194 ± 0.16
SAGGSAGGSAGGSFELVGLVSEFEDENGIPVRVFKAKNPLLGYEFLVVVLPNGEVFFLPSAGGSAGGSAGGS [r10_1123_TrMRF] | 2.8 ± 0.053 | 3.124 ± 0.014 | 2.99 ± 0.089
MKTIEIEIKLSPEIKEALKEGKPLSLEELVNKIKEEIAKKLGLKEVKVKKIEIKKDENGEIIIKVTIEVKPS [r1_290_TrROS_Hall] | 3.9 ± 0.38 | 2.77 ± 0.091 | 3.31 ± 0.27
SPLVLNPEGRTLTITLTVTVDPDVDRQVVPVLVVDEGAPRTFTFEVPKGLAGPVTFTLEIDLPPGAYVEVSA [r9_973_TrMRF] | 2.05 ± 0.028 | 2.29 ± 0.066 | 2.18 ± 0.049
SAGGSAGGSAGGMYRVEIETKGNKKVYIFPNLSPEELAKFLEDPKVVSYKVEKLSPEELESAGGSAGGSAGG [r7_502_JUSTAS] | 2.04 ± 0.077 | 2.34 ± 0.094 | 2.27 ± 0.08
SAGGSASIGEELAKELFPDLPLKVEPKEVPLEDGKTETVVTATFPDGKKVTITFEGDKIVEVTEVESAGGSA [r15_417_JUSTAS] | 0.445 ± 0.095 | 0.994 ± 0.074 | 0.718 ± 0.11
SAMTVELTLPSEELVEKIKELLPSYVKIEKVEVDEETKTVTVTVSFDPNLSPEEQQAVVEKIKKLIEEKSAG [r14_306_JUSTAS] | 2.7 ± 0.2 | 3.56 ± 0.26 | 3.4 ± 0.28
SAGGSAGGSAGKPKKKPPKPKIETKTITVTITNKDGSKTTVTATIVRNKDTNELFIRISSSAGGSAGGSAGG [r11_1024_TrROS_Hall] | 3.07 ± 0.16 | 3.13 ± 0.12 | 2.98 ± 0.22
SAGGMPADTPVIPIEILDIRVEPDPESDSYTAEVKVRFPDGTEKTFTIKLPKDATLEDVIEKAKELAASAGG [r13_578_TrMRF] | 3.83 ± 0.2 | 4.09 ± 0.11 | 4.1 ± 0.18
SAGGSAGGSPLDIEIKMEFHPDHGYWEMEIKIPGNGREINIHYQYEGGKPQITSPEQILDAIKSAGGSAGGS [r20_131_TrROS] | 0.622 ± 0.12 | 1.5 ± 0.082 | 1.24 ± 0.24
SAGKPKVKVETVTIEVDGKKIKIEVVELENGEKLVRVEVFDENGELVETKTVTLEELKKLLEKAGIEVSAGG [r19_90_TrROS_Hall] | 1.64 ± 0.1 | 2.2 ± 0.16 | 1.84 ± 0.28
SAGGSAGGSPETVTLTLTVTVKTVTLDPETGELTTTTHTVTLTLTLSKEDLEALLKSPELKKLSAGGSAGGS [r12_1015_TrROS_Hall] | 1.84 ± 0.05 | 3.09 ± 0.067 | 2.76 ± 0.17
